From patent US20060183194A1 (Genentech, published 2006) come the findings set out here.

Ends that are not written are not given here.

Assay [1] deals with T1, ErbB-2/3 receptor-Ig fusion (human, UniProt P04626 23-652; P21860 20-643).
T1 construct: extracellular domain;range 224-C-terminus; Co-expressed in HEK-293; also called ErbB-2/3-Ig; 2/3-heterodimer; not shown: human IgG heavy chain constant region from His224 (hinge) on
The experiment in a line: phage ELISA; soluble ErbB-2/3-Ig competes phage off plate-bound ErbB-2/3-Ig. (In general: ELISA stands for enzyme-linked immunosorbent assay.)

The target of assay [2] is T2, ErbB-4 receptor-Ig fusion (human, UniProt Q15303 26-651).
T2 construct: extracellular domain;range 224-C-terminus; also called ErbB-4-Ig; not shown: human IgG heavy chain constant region from His224 (hinge) on
T2 sequence: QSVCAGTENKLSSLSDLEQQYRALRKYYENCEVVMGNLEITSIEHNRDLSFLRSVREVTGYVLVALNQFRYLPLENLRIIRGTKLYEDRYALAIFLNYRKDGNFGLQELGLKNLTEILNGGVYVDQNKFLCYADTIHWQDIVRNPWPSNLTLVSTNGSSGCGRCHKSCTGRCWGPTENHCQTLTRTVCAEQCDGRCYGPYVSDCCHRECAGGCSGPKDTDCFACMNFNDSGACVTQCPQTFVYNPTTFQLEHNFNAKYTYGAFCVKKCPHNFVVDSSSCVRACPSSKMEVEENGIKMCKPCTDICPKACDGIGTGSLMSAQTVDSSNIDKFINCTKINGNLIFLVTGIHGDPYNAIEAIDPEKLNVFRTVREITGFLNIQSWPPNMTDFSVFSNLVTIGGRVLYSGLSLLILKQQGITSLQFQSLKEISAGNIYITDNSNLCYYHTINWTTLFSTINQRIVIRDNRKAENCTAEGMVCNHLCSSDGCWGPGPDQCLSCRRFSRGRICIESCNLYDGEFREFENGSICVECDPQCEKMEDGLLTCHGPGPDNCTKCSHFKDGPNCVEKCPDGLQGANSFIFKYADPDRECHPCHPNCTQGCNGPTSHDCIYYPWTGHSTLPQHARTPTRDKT
The experiment in a line: displacement of 125I-HRG from plate-bound ErbB-4-Ig.

Assay [3] deals with T3, ErbB-3 receptor-Ig fusion (human, UniProt P21860 20-643).
T3 construct: extracellular domain;range 224-C-terminus; also called ErbB-3-Ig; 3/3 homodimer; not shown: human IgG heavy chain constant region from His224 (hinge) on
T3 sequence (P21860 other isoform, or with tags, fused parts or gaps): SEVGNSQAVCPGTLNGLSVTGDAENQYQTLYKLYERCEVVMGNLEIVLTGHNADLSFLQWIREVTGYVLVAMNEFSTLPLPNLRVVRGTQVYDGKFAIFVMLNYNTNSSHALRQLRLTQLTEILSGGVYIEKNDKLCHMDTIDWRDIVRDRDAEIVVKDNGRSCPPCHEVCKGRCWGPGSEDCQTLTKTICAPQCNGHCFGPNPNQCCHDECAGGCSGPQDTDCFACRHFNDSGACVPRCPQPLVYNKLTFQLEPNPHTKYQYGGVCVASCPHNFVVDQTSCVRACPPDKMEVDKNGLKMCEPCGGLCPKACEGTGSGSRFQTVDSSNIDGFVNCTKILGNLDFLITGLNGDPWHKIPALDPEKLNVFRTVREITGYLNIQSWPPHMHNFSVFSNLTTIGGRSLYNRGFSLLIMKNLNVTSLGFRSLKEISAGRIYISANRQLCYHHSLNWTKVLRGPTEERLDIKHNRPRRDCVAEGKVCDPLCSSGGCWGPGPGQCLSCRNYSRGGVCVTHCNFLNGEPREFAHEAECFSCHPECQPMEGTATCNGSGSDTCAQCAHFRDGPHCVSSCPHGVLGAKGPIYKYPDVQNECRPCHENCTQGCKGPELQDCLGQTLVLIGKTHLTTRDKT
The experiment in a line: displacement of 125I-HRG from plate-bound ErbB-3-Ig. A general note: Loss of bound radioactivity is the signal in a displacement assay; it reports binding, not function.

In assay [4] the target is T3, ErbB-3 receptor-Ig fusion. Description: phage ELISA; soluble ErbB-3-Ig as competitor.
Protocol: (§1) Microtiter plates (Nunc Maxisorp™ 96-well plates, Inter Med, Denmark) for phage ELISA were prepared as follows. The wells were precoated overnight with 0.5 μg of rabbit anti-human IgG (Fc gamma fragment-specific) antibodies (Jackson Immunoresearch, West Grove, Pa.) in 100 μL 50 mM NaCO₃ (pH 9.6). The wells were blocked for 30 minutes (min) with 200 μL PBS containing 0.1% bovine serum albumin (BSA) and rinsed with wash buffer (PBS containing 0.05% Tween 20™). The wells were then coated with 0.1 μg ErbB-2/3-Ig in binding buffer (PBS, 0.1% BSA, 0.05% Tween 20™) for 1 h, and washed again.
(§2) Serial dilutions of soluble ErbB-2/3-Ig (competitor) and a concentration of phage predetermined to give 60% saturation (without competitor) were added to the wells in 100 μL binding buffer. Following incubation for 2 h at room temperature, plates were washed extensively and treated with a 1:900 dilution of anti-M13 horseradish peroxidase conjugate (Pharmacia, Piscataway, N.J.) for 20 min. The amount of phage binding was determined by assaying horseradish peroxidase activity using o-phenylenediamine dihydrochloride) substrate solution (Sigma Chemical Company, St. Louis, Mo.). EC₅₀ values were calculated as the concentration of soluble ErbB-2/3-Ig required to compete half of the phage off the plate.
The target in assay [5] is T2, ErbB-4 receptor-Ig fusion. Description: phage ELISA; soluble ErbB-4-Ig as competitor.
Protocol: as §1, §2

B1: HRG6: HRG-β1 177-227 displayed on phage, fused to pIII 247 (ligand, phage M13)
chain: SHLVKCAEKEKTFCVNGGECFMVKDLSNPSRYLCKCPNEFTGDRCQNYVMAGGSGGGSGSGDFDYEKMANANKGAMTENADENALQSDAKGKLDSVATDYGAAIDGFIGDVSGLANGNGATGDFAGSNSQMAQVGDGDNSPLMNNFRQYLPSLPQSVECRPFVFSAGKPYEFSIDCDKINLFRGVFAFLLYVATFMYVFSTFANILRNKES
notes: range 247-C-terminus; also called pHRG6-g3
As usually defined, the EC50 is the concentration giving half of the maximal effect. Turning to B1, the half-maximal effective concentration (EC50) in assay [1] came to 40 nM.

SHLVKCAEKEKTFCVNGGECFMVKDYGYLMCKCPNEFTGDRCQNYVMAS (ligand, also: three disulfide bonds, pairing not given here) [soluble HRG-β1 EGF variant E2] displayed a concentration for a half-maximal effect (EC50) in assay [2] of 2.4 nM.

SHLVKCAEKEKTFCVNGGECYRVKTYGYLMCKCPNEFTGDRCQNYVIAS (ligand, also: three disulfide bonds, pairing not given here, also called D4+E2+M50I) [soluble HRG-β1 EGF combination variant HRG58] came in with an EC50 in assay [2] of 0.3 nM.

B2: HRG7: HRG-β1 177-228 displayed on phage, fused to pIII 247 (ligand, phage M13)
chain: SHLVKCAEKEKTFCVNGGECFMVKDLSNPSRYLCKCPNEFTGDRCQNYVMASGGSGGGSGSGDFDYEKMANANKGAMTENADENALQSDAKGKLDSVATDYGAAIDGFIGDVSGLANGNGATGDFAGSNSQMAQVGDGDNSPLMNNFRQYLPSLPQSVECRPFVFSAGKPYEFSIDCDKINLFRGVFAFLLYVATFMYVFSTFANILRNKES
notes: range 247-C-terminus
The molecule B2 showed a half-maximal effective concentration (EC50) in assay [1] of 42 nM.

B3: HRG5: HRG-β1 147-244 displayed on phage, fused to pIII 247 (ligand, phage M13)
chain: YVSSESPIRISVSTEGANTSSSTSTSTTGTSHLVKCAEKEKTFCVNGGECFMVKDLSNPSRYLCKCPNEFTGDRCQNYVMASFYKHLGIEFMEAEELYGGSGGGSGSGDFDYEKMANANKGAMTENADENALQSDAKGKLDSVATDYGAAIDGFIGDVSGLANGNGATGDFAGSNSQMAQVGDGDNSPLMNNFRQYLPSLPQSVECRPFVFSAGKPYEFSIDCDKINLFRGVFAFLLYVATFMYVFSTFANILRNKES
notes: range 247-C-terminus; Monovalent phage display; also called pHRG5-g3
B3 gave an EC50 in assay [1] of 4.7 nM.

B4: soluble HRG-β1 EGF variant A3 (ligand)
chain: WELVPCAEKEKTFCVNGGECFMVKDLSNPSRYLCKCPNEFTGDRCQNYVMAS
modifications: also: three disulfide bonds, pairing not given here
Regarding B4, the values for the EC50 in assay [3] and in assay [2] were 4.3 nM and 2.1 nM, respectively.

B5: soluble HRG-β1 EGF variant F1 (ligand)
chain: SHLVKCAEKEKTFCVNGGECFKVKDLSNPSRYLCKCPNEFTGDRCQNYVIAS
modifications: also: three disulfide bonds, pairing not given here
Regarding B5, the results for the half-maximal effective concentration (EC50) in assay [3] and in assay [2] were 0.6 nM and 0.26 nM, respectively.

B6: HRG11: HRG-β1 177-230 displayed on phage, GGGSGGG linker to pIII 247 (ligand, phage M13)
chain: SHLVKCAEKEKTFCVNGGECFMVKDLSNPSRYLCKCPNEFTGDRCQNYVMASFYGGGSGGGGGSGGGSGSGDFDYEKMANANKGAMTENADENALQSDAKGKLDSVATDYGAAIDGFIGDVSGLANGNGATGDFAGSNSQMAQVGDGDNSPLMNNFRQYLPSLPQSVECRPFVFSAGKPYEFSIDCDKINLFRGVFAFLLYVATFMYVFSTFANILRNKES
notes: range 247-C-terminus; Monovalent phage display; also called pHRG11-g3
On to B6, for which the 50% effective concentration (EC50) in assay [1] is 19 nM.

In the case of SHLVKCGEEREGFCVNGGECYRVKTYGYLMCKCPNEFTGDRCQHYVIAS (ligand, also: three disulfide bonds, pairing not given here, also called B3+D4+E2+I2) [soluble HRG-β1 EGF combination variant HRG73], in assay [2], the 50% effective concentration (EC50) is 0.31 nM.

B7: HRG2: HRG-β1 177-244 displayed on phage, fused to pIII 247 (ligand, phage M13)
chain: SHLVKCAEKEKTFCVNGGECFMVKDLSNPSRYLCKCPNEFTGDRCQNYVMASFYKHLGIEFMEAEELYGGSGGGSGSGDFDYEKMANANKGAMTENADENALQSDAKGKLDSVATDYGAAIDGFIGDVSGLANGNGATGDFAGSNSQMAQVGDGDNSPLMNNFRQYLPSLPQSVECRPFVFSAGKPYEFSIDCDKINLFRGVFAFLLYVATFMYVFSTFANILRNKES
notes: range 247-C-terminus; Monovalent phage display; also called pHRG2-g3
Consider B7, for which the results for the EC50 in assay [4], in assay [1] and in assay [5] were 13 nM, 6 nM and 19 nM, respectively.
